Laboratory results as given in patent US20180318386A1, “PEPTIDES AND METHODS OF TREATING ENDOMETRIOSIS USING THE SAME” (BIOINCEPT, LLC, priority 2014, published 2018).

Tests used:
[1] = biological target: 14-3-3 protein zeta/delta (human) (UniProt P63104); test: PIF affinity resin pull-down, CD8+ cell lysate, LC-MS/MS count
[2] = biological target: Acidic leucine-rich nuclear phosphoprotein 32 family member A (human) (UniProt P39687); test: as above
[3] = biological target: Actin, cytoplasmic 1 (human) (UniProt P60709); test: as above
Calmodulin (human) [4] = biological target: Calmodulin (human) (UniProt P0DP23); test: as above
Calreticulin (human) = Calreticulin (human) (UniProt P27797); test: as above
[5] = biological target: Cartilage oligomeric matrix protein (human) (UniProt P49747); test: as above
Cofilin-1 (human) = Cofilin-1 (human) (UniProt P23528); test: as above
[6] = biological target: Hepatoma-derived growth factor (human) (UniProt P51858); test: as above
[7] = biological target: Isoform 2 of Heat shock protein HSP 90-alpha (human) (UniProt P07900); test: as above
[8] = biological target: Isoform 2 of Protein SET (human) (UniProt Q01105); test: as above
[9] = biological target: Nuclease-sensitive element-binding protein 1 (Fragment) (human) (UniProt P67809); test: as above
Nucleolin (human) = Nucleolin (human) (UniProt P19338); test: as above
[10] = biological target: Serine/arginine-rich-splicing factor 1 (human) (UniProt Q07955); test: as above
Serum albumin (human) = Serum albumin (human) (UniProt P02768); test: as above
[11] = biological target: Serum deprivation-response protein (human) (UniProt O95810); test: as above
Talin-1 (human) = Talin-1 (human) (UniProt Q9Y490); test: as above
Thrombospondin-1 (human) = Thrombospondin-1 (human) (UniProt P07996); test: as above
Thrombospondin-4 (human) = Thrombospondin-4 (human) (UniProt P35443); test: as above
Thymosin alpha-1 (human) = Thymosin alpha-1 (human) (UniProt P06454); test: as above
[12] = biological target: Tropomyosin alpha-4 chain (human) (UniProt P67936); test: as above
Calmodulin (human) [13] = biological target: Calmodulin (human) (UniProt P0DP23); test: PIF affinity resin pull-down, CD4+ cell lysate, LC-MS/MS count
[14] = biological target: Histone H2A type 1-B/E (human) (UniProt P04908); test: as above
[15] = biological target: Isoform 11 of Titin (human) (UniProt Q8WZ42); test: as above
[16] = biological target: Tropomyosin alpha-4 chain (human) (UniProt P67936); test: as above

Sequence of Talin-1 (human) (Q9Y490 whole entry): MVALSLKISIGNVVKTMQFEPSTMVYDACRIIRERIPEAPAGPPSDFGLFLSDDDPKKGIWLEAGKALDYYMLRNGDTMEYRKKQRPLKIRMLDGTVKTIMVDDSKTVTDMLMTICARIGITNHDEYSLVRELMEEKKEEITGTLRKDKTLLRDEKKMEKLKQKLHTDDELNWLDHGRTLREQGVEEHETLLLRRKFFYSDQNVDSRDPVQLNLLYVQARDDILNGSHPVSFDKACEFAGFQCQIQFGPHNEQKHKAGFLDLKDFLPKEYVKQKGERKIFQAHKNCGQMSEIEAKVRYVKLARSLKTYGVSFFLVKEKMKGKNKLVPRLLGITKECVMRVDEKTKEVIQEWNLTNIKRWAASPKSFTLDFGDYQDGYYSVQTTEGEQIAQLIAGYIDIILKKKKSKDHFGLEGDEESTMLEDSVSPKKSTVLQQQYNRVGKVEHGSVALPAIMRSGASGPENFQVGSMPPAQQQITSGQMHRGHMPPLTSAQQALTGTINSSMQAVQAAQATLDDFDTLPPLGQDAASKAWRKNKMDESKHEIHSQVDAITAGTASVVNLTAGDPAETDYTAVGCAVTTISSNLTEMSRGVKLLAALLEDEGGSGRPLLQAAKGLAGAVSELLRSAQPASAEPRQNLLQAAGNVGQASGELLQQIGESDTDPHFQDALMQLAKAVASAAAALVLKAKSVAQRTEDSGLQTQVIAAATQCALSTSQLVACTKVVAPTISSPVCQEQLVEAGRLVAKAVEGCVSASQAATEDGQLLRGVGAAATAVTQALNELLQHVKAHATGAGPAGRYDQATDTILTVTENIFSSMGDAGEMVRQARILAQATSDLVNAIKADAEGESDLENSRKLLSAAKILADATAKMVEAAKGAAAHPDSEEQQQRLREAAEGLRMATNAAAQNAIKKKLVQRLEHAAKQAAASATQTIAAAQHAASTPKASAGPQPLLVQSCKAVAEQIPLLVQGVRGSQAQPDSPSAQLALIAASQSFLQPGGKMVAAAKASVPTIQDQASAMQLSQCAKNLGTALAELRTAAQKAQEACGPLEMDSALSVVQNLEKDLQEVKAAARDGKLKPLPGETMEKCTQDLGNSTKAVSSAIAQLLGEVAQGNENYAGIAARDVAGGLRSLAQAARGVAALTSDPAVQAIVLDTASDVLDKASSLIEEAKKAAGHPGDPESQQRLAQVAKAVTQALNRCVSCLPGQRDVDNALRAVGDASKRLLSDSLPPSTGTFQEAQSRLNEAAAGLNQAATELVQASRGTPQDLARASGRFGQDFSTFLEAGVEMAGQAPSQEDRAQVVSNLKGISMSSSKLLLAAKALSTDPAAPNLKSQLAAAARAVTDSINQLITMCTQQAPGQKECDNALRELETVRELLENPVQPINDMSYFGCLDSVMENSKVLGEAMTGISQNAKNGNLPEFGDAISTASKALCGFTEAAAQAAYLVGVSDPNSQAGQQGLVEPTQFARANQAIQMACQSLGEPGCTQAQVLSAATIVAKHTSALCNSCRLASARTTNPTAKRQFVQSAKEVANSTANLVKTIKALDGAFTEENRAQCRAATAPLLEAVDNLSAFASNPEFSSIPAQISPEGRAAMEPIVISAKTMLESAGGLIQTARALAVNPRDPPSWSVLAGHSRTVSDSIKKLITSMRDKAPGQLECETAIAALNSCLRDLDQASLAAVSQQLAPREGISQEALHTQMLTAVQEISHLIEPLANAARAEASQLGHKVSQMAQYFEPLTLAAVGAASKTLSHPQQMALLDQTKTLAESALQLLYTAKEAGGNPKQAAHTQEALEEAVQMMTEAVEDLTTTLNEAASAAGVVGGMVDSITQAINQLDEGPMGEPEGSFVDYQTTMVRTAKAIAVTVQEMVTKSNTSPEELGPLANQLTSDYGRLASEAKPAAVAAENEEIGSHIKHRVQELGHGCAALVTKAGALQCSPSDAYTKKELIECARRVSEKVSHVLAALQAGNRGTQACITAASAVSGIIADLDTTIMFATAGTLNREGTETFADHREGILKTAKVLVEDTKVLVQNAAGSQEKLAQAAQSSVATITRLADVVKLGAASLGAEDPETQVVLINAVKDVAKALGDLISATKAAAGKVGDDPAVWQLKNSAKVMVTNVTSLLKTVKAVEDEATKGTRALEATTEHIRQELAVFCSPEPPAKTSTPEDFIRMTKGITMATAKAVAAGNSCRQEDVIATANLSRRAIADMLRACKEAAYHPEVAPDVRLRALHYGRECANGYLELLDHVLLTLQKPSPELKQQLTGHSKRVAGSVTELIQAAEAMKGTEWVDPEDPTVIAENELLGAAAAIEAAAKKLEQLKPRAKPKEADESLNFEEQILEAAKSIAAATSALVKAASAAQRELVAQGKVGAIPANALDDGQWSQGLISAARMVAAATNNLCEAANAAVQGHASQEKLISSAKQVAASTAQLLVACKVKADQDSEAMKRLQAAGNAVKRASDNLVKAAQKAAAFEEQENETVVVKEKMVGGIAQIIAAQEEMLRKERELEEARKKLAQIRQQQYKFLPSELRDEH
Sequence of Thymosin alpha-1 (human) (P06454 other isoform, or with tags, fused parts or gaps limits assumed): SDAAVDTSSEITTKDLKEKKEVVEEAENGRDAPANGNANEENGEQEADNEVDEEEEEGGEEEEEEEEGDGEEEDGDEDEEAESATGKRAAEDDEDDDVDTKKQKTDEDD
Sequence of Calreticulin (human) (P27797 18-417 limits assumed): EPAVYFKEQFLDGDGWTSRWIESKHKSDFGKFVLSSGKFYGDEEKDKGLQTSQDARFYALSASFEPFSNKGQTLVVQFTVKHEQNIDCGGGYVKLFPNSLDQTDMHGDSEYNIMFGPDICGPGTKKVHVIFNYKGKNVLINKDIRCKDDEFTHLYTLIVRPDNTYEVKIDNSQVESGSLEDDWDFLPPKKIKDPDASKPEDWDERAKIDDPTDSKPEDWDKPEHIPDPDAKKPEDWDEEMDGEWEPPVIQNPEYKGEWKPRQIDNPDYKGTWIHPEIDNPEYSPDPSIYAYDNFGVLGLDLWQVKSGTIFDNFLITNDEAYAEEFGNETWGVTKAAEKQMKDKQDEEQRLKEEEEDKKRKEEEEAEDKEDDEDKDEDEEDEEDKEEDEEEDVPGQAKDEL
Sequence of Tropomyosin alpha-4 chain (human) (P67936 2-248 limits assumed): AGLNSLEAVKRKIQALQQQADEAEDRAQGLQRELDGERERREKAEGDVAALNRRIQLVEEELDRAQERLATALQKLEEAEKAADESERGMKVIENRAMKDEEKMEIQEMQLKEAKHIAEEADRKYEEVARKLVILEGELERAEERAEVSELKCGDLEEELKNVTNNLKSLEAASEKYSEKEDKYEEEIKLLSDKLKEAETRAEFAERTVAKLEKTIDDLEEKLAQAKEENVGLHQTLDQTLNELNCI
Sequence of Nucleolin (human) (P19338 2-710 limits assumed): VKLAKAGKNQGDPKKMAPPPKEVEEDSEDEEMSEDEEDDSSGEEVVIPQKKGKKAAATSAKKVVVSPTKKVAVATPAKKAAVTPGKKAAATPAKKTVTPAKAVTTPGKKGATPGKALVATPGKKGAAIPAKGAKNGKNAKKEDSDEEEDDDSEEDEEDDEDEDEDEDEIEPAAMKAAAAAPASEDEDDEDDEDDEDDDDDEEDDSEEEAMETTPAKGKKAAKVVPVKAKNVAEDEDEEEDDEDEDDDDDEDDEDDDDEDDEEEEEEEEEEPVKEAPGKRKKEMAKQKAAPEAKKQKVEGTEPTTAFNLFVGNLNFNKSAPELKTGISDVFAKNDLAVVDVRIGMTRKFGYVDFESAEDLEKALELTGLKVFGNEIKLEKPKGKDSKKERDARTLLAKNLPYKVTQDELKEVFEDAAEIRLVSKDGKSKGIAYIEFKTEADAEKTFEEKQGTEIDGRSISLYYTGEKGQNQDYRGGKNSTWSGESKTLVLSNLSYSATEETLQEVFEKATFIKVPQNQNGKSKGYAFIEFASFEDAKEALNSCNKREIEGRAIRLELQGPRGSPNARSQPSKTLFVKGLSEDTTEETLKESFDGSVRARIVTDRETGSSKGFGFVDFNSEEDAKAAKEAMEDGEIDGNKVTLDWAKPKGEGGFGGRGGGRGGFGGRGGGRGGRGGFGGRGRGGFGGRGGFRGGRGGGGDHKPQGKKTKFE
Sequence of Acidic leucine-rich nuclear phosphoprotein 32 family member A (human) (P39687 whole entry): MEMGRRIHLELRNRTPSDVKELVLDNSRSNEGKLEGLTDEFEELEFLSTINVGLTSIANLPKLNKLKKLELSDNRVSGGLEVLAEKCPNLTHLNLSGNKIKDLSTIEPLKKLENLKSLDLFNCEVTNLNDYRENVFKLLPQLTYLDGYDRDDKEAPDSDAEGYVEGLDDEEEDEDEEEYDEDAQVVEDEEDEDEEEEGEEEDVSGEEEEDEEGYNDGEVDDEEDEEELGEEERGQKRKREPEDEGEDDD
Sequence of Hepatoma-derived growth factor (human) (P51858 whole entry, canonical isoform): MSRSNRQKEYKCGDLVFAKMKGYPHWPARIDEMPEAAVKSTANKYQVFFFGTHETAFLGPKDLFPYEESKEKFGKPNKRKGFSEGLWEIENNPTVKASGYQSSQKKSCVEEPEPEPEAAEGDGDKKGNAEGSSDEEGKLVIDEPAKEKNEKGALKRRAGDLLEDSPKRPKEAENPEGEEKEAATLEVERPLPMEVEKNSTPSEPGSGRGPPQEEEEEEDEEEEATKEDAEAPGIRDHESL
Sequence of Serum deprivation-response protein (human) (O95810 2-425 limits assumed): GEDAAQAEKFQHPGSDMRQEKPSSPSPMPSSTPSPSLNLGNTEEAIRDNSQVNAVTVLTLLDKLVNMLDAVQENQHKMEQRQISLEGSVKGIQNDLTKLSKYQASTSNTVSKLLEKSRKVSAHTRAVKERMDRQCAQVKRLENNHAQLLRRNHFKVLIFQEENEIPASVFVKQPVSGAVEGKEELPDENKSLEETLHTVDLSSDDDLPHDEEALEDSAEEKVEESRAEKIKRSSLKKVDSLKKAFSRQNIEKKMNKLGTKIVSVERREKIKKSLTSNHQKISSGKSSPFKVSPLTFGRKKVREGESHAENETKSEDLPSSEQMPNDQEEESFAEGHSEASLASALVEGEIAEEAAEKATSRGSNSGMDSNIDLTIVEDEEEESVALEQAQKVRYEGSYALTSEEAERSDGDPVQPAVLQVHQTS

Substance: PIF15 affinity resin (Cys-C6 spacer-PIF15 conjugated to agarose) (peptide)
- Ave [1]: 2
- Inject 1 [1]: 2
- Inject 2 [1]: 2
- Inject 3 [1]: 2
- Ave [2]: 2
- Inject 1 [2]: 2
- Inject 2 [2]: 2
- Inject 3 [2]: 2
- Ave [3]: 3
- Inject 1 [3]: 3
- Inject 2 [3]: 3
- Inject 3 [3]: 3
- Ave (Calmodulin (human) [4]): 2
- Inject 1 (Calmodulin (human) [4]): 2
- Inject 2 (Calmodulin (human) [4]): 2
- Inject 3 (Calmodulin (human) [4]): 2
- Ave (Calreticulin (human)): 2
- Inject 1 (Calreticulin (human)): 2
- Inject 2 (Calreticulin (human)): 2
- Inject 3 (Calreticulin (human)): 2
- Ave [5]: 4
- Inject 1 [5]: 4
- Inject 2 [5]: 4
- Inject 3 [5]: 5
- Ave (Cofilin-1 (human)): 1
- Inject 1 (Cofilin-1 (human)): 1
- Inject 2 (Cofilin-1 (human)): 1
- Inject 3 (Cofilin-1 (human)): 1
- Ave [6]: 1
- Inject 1 [6]: 1
- Inject 2 [6]: 1
- Inject 3 [6]: 1
- Ave [7]: 2
- Inject 1 [7]: 2
- Inject 2 [7]: 2
- Inject 3 [7]: 2
- Ave [8]: 1
- Inject 1 [8]: 1
- Inject 2 [8]: 1
- Inject 3 [8]: 1
- Ave [9]: 1
- Inject 1 [9]: 1
- Inject 2 [9]: 1
- Inject 3 [9]: 1
- Ave (Nucleolin (human)): 1
- Inject 1 (Nucleolin (human)): 1
- Inject 2 (Nucleolin (human)): 1
- Inject 3 (Nucleolin (human)): 1
- Ave [10]: 1
- Inject 1 [10]: 1
- Inject 2 [10]: 1
- Inject 3 [10]: 1
- Ave (Serum albumin (human)): 6
- Inject 1 (Serum albumin (human)): 3
- Inject 2 (Serum albumin (human)): 6
- Inject 3 (Serum albumin (human)): 8
- Ave [11]: 2
- Inject 1 [11]: 2
- Inject 2 [11]: 2
- Inject 3 [11]: 2
- Ave (Talin-1 (human)): 1
- Inject 1 (Talin-1 (human)): 1
- Inject 2 (Talin-1 (human)): 1
- Inject 3 (Talin-1 (human)): 1
- Ave (Thrombospondin-1 (human)): 7
- Inject 1 (Thrombospondin-1 (human)): 7
- Inject 2 (Thrombospondin-1 (human)): 7
- Inject 3 (Thrombospondin-1 (human)): 7
- Ave (Thrombospondin-4 (human)): 3
- Inject 1 (Thrombospondin-4 (human)): 3
- Inject 2 (Thrombospondin-4 (human)): 3
- Inject 3 (Thrombospondin-4 (human)): 3
- Ave (Thymosin alpha-1 (human)): 3
- Inject 1 (Thymosin alpha-1 (human)): 2
- Inject 2 (Thymosin alpha-1 (human)): 2
- Inject 3 (Thymosin alpha-1 (human)): 4
- Ave [12]: 3
- Inject 1 [12]: 3
- Inject 2 [12]: 3
- Inject 3 [12]: 3
- Ave (Calmodulin (human) [13]): 3
- Inject 1 (Calmodulin (human) [13]): 3
- Inject 2 (Calmodulin (human) [13]): 3
- Inject 3 (Calmodulin (human) [13]): 3
- Ave [14]: 2
- Inject 1 [14]: 2
- Inject 2 [14]: 2
- Inject 3 [14]: 2
- Ave [15]: 2
- Inject 1 [15]: 2
- Inject 2 [15]: 2
- Inject 3 [15]: 2
- Ave [16]: 4
- Inject 1 [16]: 4
- Inject 2 [16]: 4
- Inject 3 [16]: 4
